Patent publication US20240109962A1 (SPARX BIOSCIENCE, published 2024)
Positions count from the first letter of the chain named.

B1: Antibody 8A4 (antibody, V domains shown)
VH: QVQLKESGPGLVAPSQSLSITCTVSGFSLTDYGVNWVRQPPGKGLEWLGMIWGDGNTDYNSALKSRLSISKVNSKSQVFLKMNSLQTDDTARYYCARSSYRYDENIYYYAMDYWGQGTSVTVSS
VL: DIVMTQSPSSLTVTAGEEVTLSCKSSQSLLNSGIQKNYLTWYQQKPGQPPKLLIYWASTRESGVPDRFTGSVSGTDFTLTISSVQAEDLAVYYCQNDYSLPFTFGSGTKLEIK
notes: Mouse hybridoma mAb purified from ascites
B2: Antibody 14C11 (antibody, V domains shown)
VH: EVQLQQSGPDLVKPGASVKISCKASGYIFTDFNMHWVKQSHGKSLEWIGYIYPFNGGTGYNQKFENKATLTVDNSSSTAYMEVRSLTSEDSAVYYCARRGGRGHFDYWGQGTTLTVSS
VL: DIQMTQSPASLSASVGETVTVTCRASGNIHNYLAWYQQKQGKSPQLLVYNAKTLADGVPSRFSGSGSGTQFSLKINSLQPEDFGSYYCQHFWNTPFTFGSGTKLEIK
notes: as for B1
B3: Antibody 2F1 (antibody, V domains shown)
VH: EVKLEESGGGLVQPGGSMKLSCAASGFTFSDAWMDWVRQSPKKGLEWVAEIRSKSNNHTTYYAESVKGRFTISRDDSKSSVYLQMNSLRAEDTGIYYCTRDWLTYWGQGTLVTVSA
VL: DIVLTQSPASLAVSLGQRATISCRASKSVSTSGYSYMNWYQQKPGQPPKLLIYLASNLESGVPARFSGSGSGTDFTLNIHPVEEEDAATYYCQHSRELPLTFGAGTKLELK
notes: as for B1
B4: Antibody 12D8 (antibody, V domains shown)
VH: QVQLRQSGPGLVQPSQSLSITCTVSGFSLTSYGVHWVRQSPGKGLEWLGVIWSGGITDYNAAFISRLSISKDNSKSQVFFRMNSLQTNDTAIYYCAREIYGNPDYWGQGTTLTVSS
VL: DIVMTQSHKFMSTSVGDRVSITCKASQDVSIAVAWFQQKPGQSPKLLIYSASYRYTGVPDRFSGSGSGTDFTFTISSVQAEDLAVYYCQQHYSTPRTFGGGTKLEIK
notes: as for B1
B5: Antibody 3B5 (antibody, V domains shown)
VH: EVQLQQSGPELVKPGASLKISCKASGYTFTDYNMHWVKQSHGKSLEWIGSIYPYNGDTDYNQKFKSKATLTIDNSSSTAFMDLRSLTSEDSAVYYCARENDYDGPPFPYWGLGTLVTVSA
VL: DIQMTQSSSSFSVSLGDRVTITCKASEDIYNRLAWYQQKSGNAPRLLISGATSLETGVPSRFSGSGSGKDYTLSITSLQTEDVATYYCQQYWSIRTFGGGTKLEIK
notes: as for B1
B6: Antibody 10B11 (antibody, V domains shown)
VH: EIQLQQSGPELVKPGASVKVSCKASGNSFTDNNIYWVKQSHGESLEWIGYIDPFNGRTTYNQKFKGKATLTVDKSSSTAFMHLNSLTSGDSAVYYCARGDYFNYWGQGTTLTVSS
VL: EIQMTQTTSSLSASLGDRVTISCSASQGINNYLNWFQQKSDGTVKLLIYYTSSLHSGVPSRFSGSGSGTDYSLTISNLEPEDIAIYYCQQYSNLPFTFGGGTELEIK
notes: as for B1
B7: Antibody 4A9 (antibody, V domains shown)
VH: EIQLQQSGPELVKPGASVKVSCKASGSSFTDYNMYWVKQIHGKSLDWIGYIDPYNGRTTYNQKFKGKATLTVDKSSSTAFMHLNSLTSEDSAVYYCAGGDYFDYWGHGTSLTVSS
VL: B6 VL with N30S, S40P, S53T, Y71F, E79D, I83F, I85T, F96Y, E103K
notes: as for B1
B8: Antibody 11D9 (antibody, V domains shown)
VH: EIQLQQSGPELVKPGASVKLSCKASGYAFTTYNMYWVKQSPGKSLEWIGYIDPYNGGATYNLKFKGKATLTVDKSSSAAYMHLNGLTSEDSAVYYCAGGDYFNYWGQGTILTVSS
VL: B6 VL with E1D, S24R, G28V, S40P, S53T, I83F, I85T, N93T, F96Y, E103K
notes: as for B1
B9: Antibody 7G4 (antibody, V domains shown)
VH: QVQLKQSGPGLVQPSQSLSITCTVSGFSLATYGVHWVRQSPGKGLEWLGVMWRDGSTDYNAVFMSRLSITKDDSKSQVFFKMNSLQADDTAIYYCAKNPYLYGSSHYYAMDYWGQGTSVTVSS
VL: DIVMTQSPSSLSVSAGEKVTMSCKSSQSLLNSENQKNYLAWYQQKPGQPPKLLIYGASTRESGVPDRFTGSGSGTDFTLTISSVQAEDLAVYYCQNDHIYPFTFGSGTKLEIK
notes: as for B1
B10: chimeric 11B12 (antibody, V domains shown)
VH: DVQLQESGPGLVKPSQSLSLTCSVTGYSITSGYYWNWIRQFPGNKLEWMGYISYDGNNNYNPSLKNRISITRDTSKNQFFLKLNSVTTEDTATYYCAREESTMITTAWFAYWGQGTLVTVSA
VL: DIQMTQSPASLSVSVGETVTITCRASENIYSNLAWYQQKQGKSPQLLVYGATNLADGVPSRFSGSGSGTQYSLKINSLQSEDFGSYFCQHFWDTPYTFGGGTKLEIK
B11: Antibody h#2C1 (antibody, V domains shown)
VH: EVQLVESGGGLVQPGGSLRLSCAVSGYSITSGYYWNWVRQAPGKGLEWVAYISYDGNNNYNPSLKNRFTISRDTSKNTFYLQMNSLRAEDTAVYYCAREESTMITTAWFAYWGQGTLVTVSS
VL: DIQMTQSPSSLSASVGDRVTITCRASENIYSNLAWYQQKPGKAPKLLIYGATNLASGVPSRFSGSGSGTDYTLTISSLQPEDFATYYCQHFWDTPYTFGQGTKVEIK
notes: Humanized variant of 11B12
B12: h#2G3 (antibody, V domains shown)
VH: B11 VH with V38I, F79V
VL: B11 VL with M4L
notes: also called Antibody h#2G3
B13: Antibody h#2D4 (antibody, V domains shown)
VH: B11 VH with A97V
VL: B11 VL
notes: Humanized variant of 11B12
B14: Antibody h#2D1 (antibody, V domains shown)
VH: B11 VH with F79V, A97V
VL: B11 VL
notes: Humanized variant of 11B12
B15: Antibody h#2G6 (antibody, V domains shown)
VH: B11 VH with T74A
VL: B11 VL
notes: Humanized variant of 11B12

Target: LILRB2 antigen of the ELISA of Table 5 (format not specified) (UniProt Q8N423 22-460, limits assumed)
Sequence (Q8N423 22-460 limits assumed): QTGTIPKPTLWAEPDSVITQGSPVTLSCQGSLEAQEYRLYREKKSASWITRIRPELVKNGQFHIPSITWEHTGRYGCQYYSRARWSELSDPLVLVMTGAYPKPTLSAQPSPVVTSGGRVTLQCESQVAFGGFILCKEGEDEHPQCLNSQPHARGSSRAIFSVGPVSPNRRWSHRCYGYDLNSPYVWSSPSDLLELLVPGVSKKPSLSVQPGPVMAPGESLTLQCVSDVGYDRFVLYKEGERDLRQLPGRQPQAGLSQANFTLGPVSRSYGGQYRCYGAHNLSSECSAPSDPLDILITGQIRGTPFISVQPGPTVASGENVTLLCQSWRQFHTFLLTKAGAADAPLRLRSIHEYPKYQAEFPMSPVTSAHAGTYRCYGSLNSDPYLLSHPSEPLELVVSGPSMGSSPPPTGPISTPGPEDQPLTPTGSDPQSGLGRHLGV
Experiment: ELISA, antibody titration

Binder | Kd [nM]
B1 | 0.493
B2 | 0.804
B3 | 2.18
B4 | 4.37
B5 | 2.93
B6 | 0.195
B7 | 0.216
B8 | 1.43
B9 | 1.53

Target: T1, human LILRB1 expressed on 293T cells (human, UniProt Q8NHL6 24-650)
T1 construct: whole, on cells
T1 sequence (Q8NHL6 24-650): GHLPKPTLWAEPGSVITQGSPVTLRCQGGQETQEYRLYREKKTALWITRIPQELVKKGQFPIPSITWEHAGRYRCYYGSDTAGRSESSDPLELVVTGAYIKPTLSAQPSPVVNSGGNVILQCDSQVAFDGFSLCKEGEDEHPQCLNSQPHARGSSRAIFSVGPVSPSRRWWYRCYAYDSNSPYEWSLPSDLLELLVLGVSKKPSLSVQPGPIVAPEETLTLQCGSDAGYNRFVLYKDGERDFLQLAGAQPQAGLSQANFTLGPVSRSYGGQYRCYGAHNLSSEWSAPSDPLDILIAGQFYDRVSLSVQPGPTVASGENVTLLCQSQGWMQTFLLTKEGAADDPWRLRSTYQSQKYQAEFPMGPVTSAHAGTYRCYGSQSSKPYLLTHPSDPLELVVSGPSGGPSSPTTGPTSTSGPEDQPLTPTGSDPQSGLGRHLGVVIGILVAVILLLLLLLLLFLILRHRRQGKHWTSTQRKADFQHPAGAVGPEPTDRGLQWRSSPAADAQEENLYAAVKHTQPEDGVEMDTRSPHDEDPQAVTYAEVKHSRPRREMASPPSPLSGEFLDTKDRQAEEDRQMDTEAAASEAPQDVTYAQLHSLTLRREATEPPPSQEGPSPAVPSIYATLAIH
Experiment: flow cytometry on 293T transfectants, MFI
Procedure: (§1) The cells were then immobilized with glutaraldehyde in the presence of 5% defatted milk at room temperature for 2 hours. An anti-LILRB2 antibody (5 μg/ml) was added to each well and incubated at room temperature for 1 hours. An Alex Flour®-labelled goat anti-mouse secondary antibody (1:2,000 dilution) was then added into each well and incubated at room temperature for 30′. The cells were washed twice with PBS after the staining. Fluorescence intensities (MFI) were measured.

Binder | binding result
B1 | no binding (tested: 5 µg/ml)
B2 | no binding (tested: 5 µg/ml)
B3 | no binding (tested: 5 µg/ml)
B4 | no binding (tested: 5 µg/ml)
B5 | no binding (tested: 5 µg/ml)
B9 | no binding (tested: 5 µg/ml)

Target: T2, human LILRB3 expressed on 293T cells (human, UniProt O75022 24-631)
T2 construct: whole, on cells
Experiment: flow cytometry on 293T transfectants, MFI
Procedure: as §1

Binder | binding result
B1 | no binding (tested: 5 µg/ml)
B2 | no binding (tested: 5 µg/ml)
B3 | no binding (tested: 5 µg/ml)
B4 | no binding (tested: 5 µg/ml)
B5 | no binding (tested: 5 µg/ml)
B9 | no binding (tested: 5 µg/ml)

Target: T2, human LILRB3 expressed on 293T cells
Experiment: cell ELISA on fixed 293T transfectants, OD490
Procedure: The cells were then immobilized with glutaraldehyde in the presence of 5% defatted milk at room temperature for 2 hours. An anti-LILRB2 antibody (2 μg/ml) was added to each well and incubated at room temperature for 2 hours. An HRP-labelled goat anti-mouse secondary antibody was then added into each well and incubated at room temperature for one hour. An HRP substrate, o-phenylenediamine dihydrochloride (OPD) was then added to each well. The plate was incubated at room temperature for 15 min to allow color development and OD₄₉₀ values were determined.

Binder | binding result
B6 | no binding (tested: 2 µg/ml)
B7 | no binding (tested: 2 µg/ml)
B8 | no binding (tested: 2 µg/ml)

Target: T3, LILRB1-His
T3 construct: also called His-tagged LILRB1; recombinant LILRB1 protein
T3 sequence (chain, as listed by the source limits assumed): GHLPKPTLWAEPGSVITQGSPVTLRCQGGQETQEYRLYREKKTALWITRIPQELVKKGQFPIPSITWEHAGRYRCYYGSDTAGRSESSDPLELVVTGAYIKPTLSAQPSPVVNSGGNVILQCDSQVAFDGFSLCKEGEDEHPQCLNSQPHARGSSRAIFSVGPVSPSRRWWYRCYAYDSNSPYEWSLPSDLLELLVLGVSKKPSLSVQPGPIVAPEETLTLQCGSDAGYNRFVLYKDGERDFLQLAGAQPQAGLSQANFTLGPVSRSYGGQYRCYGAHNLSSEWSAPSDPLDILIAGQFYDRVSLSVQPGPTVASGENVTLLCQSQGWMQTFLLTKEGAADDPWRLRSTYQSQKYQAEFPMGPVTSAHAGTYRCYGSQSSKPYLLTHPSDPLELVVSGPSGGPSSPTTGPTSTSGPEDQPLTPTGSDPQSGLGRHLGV
Experiment: ELISA on recombinant His-tagged protein, OD450

Binder | binding result
B1 | no binding
B4 | no binding
B5 | no binding

Target: T4, LILRB3-His
T4 construct: also called His-tagged LILRB3; recombinant LILRB3 protein
Experiment: ELISA on recombinant His-tagged protein, OD450

Binder | binding result
B1 | no binding
B2 | no binding
B5 | no binding
B6 | no binding
B7 | no binding
B8 | no binding

Target: T5, His-tagged human LILRB2 polypeptide (human, UniProt Q8N423 22-460)
T5 construct: SPR analyte; also called His-tagged human LILBR2 polypeptide; not shown: His tag
T5 sequence (Q8N423 22-460 limits assumed): as the sequence (Q8N423 22-460 limits assumed) above
Experiment: SPR, antibody on CM5 chip, His-LILRB2 analyte, 1:1 model
Procedure: Surface plasmon resonance (SPR) was used to examine binding activities of exemplary anti-LILBR2 antibodies disclosed herein. Briefly, the anti-LILBR2 antibody was diluted in a coating buffer to a concentration of 30 μg/ml, loaded onto CM5 chips at 10 μl/min to allow coating of the antibody on the surface of the CM5 chip. […] Binding affinity was measured based on the 1:1 binding model.

Binder | Kd [nM] | koff [s⁻¹] | kon [M⁻¹ s⁻¹]
B1 | 0.185 | 0.000174 | 940000
B2 | 0.962 | 0.00025 | 260000
B4 | 0.227 | 0.00014 | 618000
B9 | 1.57 | 0.000677 | 432000

Target: T6, human LILRB2 expressed on cells (293T-LILRB2, CHO-K1-LILRB2) (human, UniProt Q8N423 22-597)
T6 construct: whole, on cells; the cell line is named under assay; also called HEK293T-LILRB2
T6 sequence (Q8N423 22-597): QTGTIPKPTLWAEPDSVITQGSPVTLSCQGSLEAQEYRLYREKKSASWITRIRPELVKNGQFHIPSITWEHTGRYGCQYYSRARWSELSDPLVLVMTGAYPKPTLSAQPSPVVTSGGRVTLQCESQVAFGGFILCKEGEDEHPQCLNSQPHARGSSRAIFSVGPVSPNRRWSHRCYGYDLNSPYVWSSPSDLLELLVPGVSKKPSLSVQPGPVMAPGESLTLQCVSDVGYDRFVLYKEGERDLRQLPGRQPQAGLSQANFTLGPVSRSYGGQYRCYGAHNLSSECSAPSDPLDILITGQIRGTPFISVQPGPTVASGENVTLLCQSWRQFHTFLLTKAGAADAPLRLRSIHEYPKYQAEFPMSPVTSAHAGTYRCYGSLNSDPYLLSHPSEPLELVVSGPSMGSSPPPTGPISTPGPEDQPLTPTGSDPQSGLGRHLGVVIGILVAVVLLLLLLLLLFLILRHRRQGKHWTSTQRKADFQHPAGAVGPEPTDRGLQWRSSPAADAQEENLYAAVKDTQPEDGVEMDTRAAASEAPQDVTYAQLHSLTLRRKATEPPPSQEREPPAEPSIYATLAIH
Experiment: flow cytometry on 293T-LILRB2 cells, serial dilution, APC anti-human IgG; fit table under the graph
From the text: (§2) The cells were washed and then subject to flow cytometry to measure levels of fluorescent signals.

Binder | Bmax [RFU] | Kd [nM]
B10 | 582000 | 0.171

Target: T6, human LILRB2 expressed on cells …
Experiment: as above
Remark: another data set of the same source
From the text: as §2

Binder | Bmax [RFU] | Kd [nM]
B11 | 684000 | 0.394
B12 | 683000 | 0.536

Target: T6, human LILRB2 expressed on cells …
Experiment: as above
Remark: another data set of the same source
From the text: as §2

Binder | Bmax [RFU] | Kd [nM]
B13 | 563000 | 0.386
B14 | 565000 | 0.412
B15 | 582000 | 0.292

Target: T6, human LILRB2 expressed on cells …
Experiment: flow cytometry, blockade of His-tagged HLA-G tetramer binding to 293T-LILRB2 cells; fit table under the graph
Procedure: Serial diluted humanized LILRB2 antibodies were then added to the mixture and incubated at room temperature for another 45 minutes. The binding of HLA-G/LILRB2 was detected afterwards using a secondary PE-labeled anti-His tag antibody via flow cytometry.

Binder | IC50 [nM] | Span [RFU]
B11 | 0.56 | 6960
B13 | 0.429 | 7190
B14 | 0.613 | 6830
B15 | 0.391 | 7660
